# Laboratory results published in patent US20250289869.
# Legend:
# [1] = test system: FVIII169/VWF059 heterodimer
# [2] = test system: FVIII169/VWF057 heterodimer
# Sequence of FVIII169/VWF057 heterodimer (chain, as listed by the source, chain 1 of 2): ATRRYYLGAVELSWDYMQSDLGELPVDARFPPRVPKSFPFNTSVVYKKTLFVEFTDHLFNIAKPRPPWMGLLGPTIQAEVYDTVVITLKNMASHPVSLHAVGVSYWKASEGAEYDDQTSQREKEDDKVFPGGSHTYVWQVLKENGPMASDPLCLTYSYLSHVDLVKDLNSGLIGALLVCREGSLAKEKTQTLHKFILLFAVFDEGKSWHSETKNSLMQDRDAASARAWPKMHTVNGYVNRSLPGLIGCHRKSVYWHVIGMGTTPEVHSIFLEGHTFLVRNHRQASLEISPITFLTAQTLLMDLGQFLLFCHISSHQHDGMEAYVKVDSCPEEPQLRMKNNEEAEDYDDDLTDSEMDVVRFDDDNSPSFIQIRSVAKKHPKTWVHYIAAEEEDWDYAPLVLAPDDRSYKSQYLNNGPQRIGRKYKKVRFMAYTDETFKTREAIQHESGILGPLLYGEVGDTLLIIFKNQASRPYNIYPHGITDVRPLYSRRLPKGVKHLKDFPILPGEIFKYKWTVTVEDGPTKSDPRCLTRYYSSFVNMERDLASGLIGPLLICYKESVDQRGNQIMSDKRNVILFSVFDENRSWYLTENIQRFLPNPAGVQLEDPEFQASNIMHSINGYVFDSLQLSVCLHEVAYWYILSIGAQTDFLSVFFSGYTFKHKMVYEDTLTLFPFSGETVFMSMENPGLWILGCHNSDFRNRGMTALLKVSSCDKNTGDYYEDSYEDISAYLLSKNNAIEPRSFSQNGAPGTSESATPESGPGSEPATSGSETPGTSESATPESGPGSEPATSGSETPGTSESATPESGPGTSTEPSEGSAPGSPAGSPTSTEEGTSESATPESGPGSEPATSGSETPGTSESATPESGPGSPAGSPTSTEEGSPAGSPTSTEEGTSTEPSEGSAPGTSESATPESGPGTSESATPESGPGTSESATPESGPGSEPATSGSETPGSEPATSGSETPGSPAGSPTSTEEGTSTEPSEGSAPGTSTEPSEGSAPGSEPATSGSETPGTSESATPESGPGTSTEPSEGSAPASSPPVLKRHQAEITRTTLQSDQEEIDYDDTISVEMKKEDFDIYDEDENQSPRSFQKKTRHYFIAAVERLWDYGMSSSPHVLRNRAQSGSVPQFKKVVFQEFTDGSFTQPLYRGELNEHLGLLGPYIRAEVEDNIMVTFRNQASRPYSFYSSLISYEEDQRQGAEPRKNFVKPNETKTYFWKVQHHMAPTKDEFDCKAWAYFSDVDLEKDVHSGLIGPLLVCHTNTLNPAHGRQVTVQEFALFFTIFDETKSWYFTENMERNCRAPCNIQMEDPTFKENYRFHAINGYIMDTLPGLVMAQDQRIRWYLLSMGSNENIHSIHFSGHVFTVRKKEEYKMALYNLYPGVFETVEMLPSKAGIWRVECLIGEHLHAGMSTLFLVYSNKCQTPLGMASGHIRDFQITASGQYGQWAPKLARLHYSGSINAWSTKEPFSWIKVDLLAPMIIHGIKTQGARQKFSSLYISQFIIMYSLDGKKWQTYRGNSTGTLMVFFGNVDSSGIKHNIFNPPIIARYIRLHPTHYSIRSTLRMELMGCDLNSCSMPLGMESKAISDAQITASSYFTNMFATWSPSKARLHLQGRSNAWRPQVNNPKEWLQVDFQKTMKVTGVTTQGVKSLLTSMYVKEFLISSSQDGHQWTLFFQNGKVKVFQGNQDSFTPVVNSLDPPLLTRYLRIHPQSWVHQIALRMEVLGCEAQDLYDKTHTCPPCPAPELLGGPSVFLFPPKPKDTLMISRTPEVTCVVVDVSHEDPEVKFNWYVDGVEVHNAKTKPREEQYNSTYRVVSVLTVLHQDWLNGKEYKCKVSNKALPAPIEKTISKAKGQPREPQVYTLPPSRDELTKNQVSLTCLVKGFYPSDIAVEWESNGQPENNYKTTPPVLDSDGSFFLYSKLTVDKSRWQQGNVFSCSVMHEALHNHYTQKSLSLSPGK
# Sequence of FVIII169/VWF057 heterodimer (chain, as listed by the source, chain 2 of 2): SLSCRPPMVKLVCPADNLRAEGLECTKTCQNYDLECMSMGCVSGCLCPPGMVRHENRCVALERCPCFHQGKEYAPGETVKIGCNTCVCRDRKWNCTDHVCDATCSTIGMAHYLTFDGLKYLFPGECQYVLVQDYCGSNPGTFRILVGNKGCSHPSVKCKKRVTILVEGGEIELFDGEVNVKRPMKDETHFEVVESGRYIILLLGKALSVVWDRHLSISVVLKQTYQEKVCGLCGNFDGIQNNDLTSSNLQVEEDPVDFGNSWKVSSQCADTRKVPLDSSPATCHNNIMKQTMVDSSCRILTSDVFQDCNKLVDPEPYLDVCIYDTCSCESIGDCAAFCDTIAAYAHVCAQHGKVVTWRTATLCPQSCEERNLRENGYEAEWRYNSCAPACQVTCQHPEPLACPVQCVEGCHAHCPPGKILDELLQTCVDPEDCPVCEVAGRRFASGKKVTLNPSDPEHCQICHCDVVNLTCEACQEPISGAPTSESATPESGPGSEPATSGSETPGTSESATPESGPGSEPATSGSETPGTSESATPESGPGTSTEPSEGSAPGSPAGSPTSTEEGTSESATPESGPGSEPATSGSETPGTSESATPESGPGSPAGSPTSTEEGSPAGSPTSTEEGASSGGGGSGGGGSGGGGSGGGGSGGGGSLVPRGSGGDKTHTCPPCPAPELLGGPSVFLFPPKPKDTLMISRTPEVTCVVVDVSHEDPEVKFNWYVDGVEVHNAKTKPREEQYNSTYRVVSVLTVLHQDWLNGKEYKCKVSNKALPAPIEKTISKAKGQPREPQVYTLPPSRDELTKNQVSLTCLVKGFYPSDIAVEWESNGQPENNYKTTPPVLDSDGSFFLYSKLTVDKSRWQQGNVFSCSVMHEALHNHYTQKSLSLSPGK
# Sequence of FVIII169/VWF059 heterodimer (chain, as listed by the source, chain 1 of 2): as the sequence (chain, as listed by the source, chain 1 of 2) above
# Sequence of FVIII169/VWF059 heterodimer (chain, as listed by the source, chain 2 of 2): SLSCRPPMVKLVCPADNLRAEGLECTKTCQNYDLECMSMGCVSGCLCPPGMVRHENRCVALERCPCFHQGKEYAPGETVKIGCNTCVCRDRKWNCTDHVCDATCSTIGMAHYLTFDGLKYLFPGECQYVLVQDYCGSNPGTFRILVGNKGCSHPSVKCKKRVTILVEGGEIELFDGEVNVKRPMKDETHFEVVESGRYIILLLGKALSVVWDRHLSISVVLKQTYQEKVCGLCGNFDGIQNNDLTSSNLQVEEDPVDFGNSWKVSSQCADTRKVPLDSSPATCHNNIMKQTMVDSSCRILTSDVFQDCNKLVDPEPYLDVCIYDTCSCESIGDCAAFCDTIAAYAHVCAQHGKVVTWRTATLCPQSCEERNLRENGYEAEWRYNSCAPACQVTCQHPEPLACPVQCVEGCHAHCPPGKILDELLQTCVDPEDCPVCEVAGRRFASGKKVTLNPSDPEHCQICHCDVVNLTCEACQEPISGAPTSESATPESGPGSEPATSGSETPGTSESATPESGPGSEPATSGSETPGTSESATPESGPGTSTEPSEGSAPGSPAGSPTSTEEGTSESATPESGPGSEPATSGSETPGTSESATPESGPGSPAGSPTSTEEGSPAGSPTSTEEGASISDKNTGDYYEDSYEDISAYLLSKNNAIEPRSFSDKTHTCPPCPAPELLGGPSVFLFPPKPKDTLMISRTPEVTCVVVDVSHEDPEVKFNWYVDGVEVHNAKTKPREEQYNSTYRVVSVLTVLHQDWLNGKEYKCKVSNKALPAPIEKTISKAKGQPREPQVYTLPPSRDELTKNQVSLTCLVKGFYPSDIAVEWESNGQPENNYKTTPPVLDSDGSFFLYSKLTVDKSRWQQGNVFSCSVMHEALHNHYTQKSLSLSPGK
substance,measurement,setting,value
human α-thrombin,thrombin cleavage by mass spectroscopy (MS),[1],"By MS, FVIII 169/VWF059 again showed better release of D′D3 from Fc as compared to VWF057"
same,"thrombin digestion, release of D′D3 from Fc (SDS-PAGE / western blot time course, FVIII:thrombin about 22:1, 37° C.)",[1],little to no detectable un-cleaved FVIII 169/VWF059 after 5 minutes
same,"thrombin digestion, release of D′D3 from Fc (SDS-PAGE / western blot time course, FVIII:thrombin about 22:1, 37° C.)",[2],Un-cleaved FVIII169/VWF057 remained after 15 minutes
